“And” between values parts separate entries of the source, which are not always exact repeats. Equal entries are not always repeated. “Also recorded” adds a separate entry of the source.
Legend:
plasma = test: Prothrombin time; format: biochemical, human; conditions: for anticoagulant activity in buffers of high ionic strength: 50 mM Tris-HCl (pH 7.4) with NaCl 35 mM to 150 mM; for anticoagulant activity, prothrombin time: human plasma, 37° C.
Description: Briefly, prothrombin times may be measured according to the method of Quick (see Quick A J. (1935) J. Biol. Chem. 109, 73-74). 100 μl of 50 mM of Tris-HCl buffer (pH 7.4), 100 μl of plasma and 50 μL of the protein under investigation are to be incubated for 2 min at 37° C. Clotting is initiated by the addition of 150 μL of thromboplastin with calcium reagent.
Anticoagulant activity—The anticoagulant activities of H. haemachatus venom and its fractions was determined by four coagulation tests using a BBL fibrometer: • 1. Recalcification time: The recalcification times were determined according to the method of Langdell et al. (25). 50 mM Tris-HCl buffer (pH 7.4) (100 μl), plasma (100 μl) and various concentrations of venom or its fraction (50 μl) were preincubated for 2 min at 37° C. Clotting was initiated by the addition of 50 μl of 50 mM CaCl2. • 2. Prothrombin time: The prothrombin times were measured according to the method of Quick (26). 100 μl of 50 mM Tris-HCl buffer (pH 7.4), 100 μl of plasma and 50 μl of venom or its fractions were preincubated for 2 min at 37° C. Clotting was initiated by the addition of thromboplastin with calcium reagent (150 μl) which can be purchased from Sigma (St. Louis, Mo., USA). • For studying the role of electrostatic interactions, the anticoagulant activity of a specific concentration of hemextin A (4.4 μM), hemextin B (4.4 μM) and hemextin AB complex (0.11 μM) was monitored in 50 mM Tris-HCl (pH 7.4) containing various concentrations of NaCl (35 mM to 150 mM). • For studying the role of hydrophobic interactions, the anticoagulant activity of a specific concentration of hemextin A (4.4 μM), hemextin B (4.4 μM) and hemextin AB complex (0.11 μM) was monitored in 50 mM Tris-HCl (pH 7.4) containing various concentrations of glycerol (125 mM to 250 mM). • 2. Stypven time: Stypven time measurements were determined according to the method of Hougie (27). Plasma (100 μl), 50 mM Tris-HCl buffer (pH 7.4) (100 μl) and RVV (0.01 μg in 100 μl) and individual proteins or the reconstituted complex (50 μl) were preincubated for 2 min at 37° C. Clotting was initiated by the addition of 50 mM CaCl2 (50 μl). • 3. Thrombin time: Thrombin time was determined according to the method of Jim (28). Individual proteins or the reconstituted complex were incubated with 100 μl of plasma and 100 μl of 50 mM Tris-HCl buffer (pH 7.4) for 2 min at 37° C. in a total volume 250 μl. Clotting was initiated by the addition of standard thrombin reagent (0.01 NIH units in 50 μl).

Factor IXa = Factor IXa (Homo sapiens, UniProt P00740); test: Serine protease specificity, FIXa; format: biochemical; conditions: FIXa (3 μM)/Spectrozyme fIXa
Description: (§1) Serine protease specificity—The selectivity profile of anticoagulant proteins and their complex was examined against 12 serine proteases—procoagulant serine proteases (FIXa, FXa, FXIa, FXIIa, plasma kallikrein and thrombin), anticoagulant serine protease (APC), fibrinolytic serine proteases (urokinase, t-PA and plasmin) and classical serine proteases (trypsin and chymotrypsin). Various concentrations of purified hemextin A/hemextin B and reconstituted hemextin AB complex were preincubated with each of the enzymes (Table 1) for a period of five minutes at a temperature of 37° C., followed by the addition of appropriate chromogenic substrate.
(§2) For studies with FXIa, kallikrein and urokinase, the appropriate substrates were determined prior to their screening against the inhibitors. For FXIa, the Vmax for the amidolytic activity corresponding to the chromogenic substrates S-2266, S-2302 and S-2366 was determined. S-2302 was the substrate with the highest Vmax and thus was used in the screening studies. Similar studies with kallikrein and urokinase were carried out with substrates S-2266, S-2302 and S-2288 for kallikrein and S-2444 and S-2484 for urokinase. In a total volume of 200 μl in the individual wells of the microtiter plate, final concentrations of FVIIa (300 nM)/S-2288, FVIIa-sTF (30 nM)/S-2288, FXa (0.75 nM)/S-2765, α-thrombin (0.66 nM)/S-2238, plasmin (2 nM)/S-2366, FIXa (3 μM)/spectrozyme®fIXa, FXIa (0.34 nM)/S-2366, FXIIa (0.4 nM)/S-2302, recombinant tissue plasminogen activator (80 nM)/S-2288, activated protein C (0.34 nM)/S-2366, urokinase/S-2444, plasma kallikrein (0.4 nM)/S-2302, trypsin (2.17 nM)/S-2222 and chymotrypsin (0.4 nM)/S-2586 were measured. The kinetic rate of substrate hydrolysis (mOD/min) was measured over 5 min.

Plasma Kallikrein = Plasma Kallikrein (Homo sapiens, UniProt P03952); test: Serine protease specificity, plasma kallikrein; format: biochemical; conditions: for inhibitory potency towards FVIIa versus plasma kallikrein: FVIIa in the absence or presence of sTF; for Observed Effect, plasma kallikrein amidolytic activity: plasma kallikrein (0.4 nM)/S-2302
Description: as §1, §2

Thrombin = biological target: T1, Thrombin (Homo sapiens, UniProt P00734); test: Serine protease specificity, thrombin; format: biochemical; conditions: α-thrombin (0.66 nM)/S-2238
T1 construct: FXa performs a proteolytic cleavage of prothrombin to thrombin
Description: as §1, §2

APC = APC (Homo sapiens, UniProt P04070); test: Serine protease specificity, APC; format: biochemical; conditions: activated protein C (0.34 nM)/S-2366
Description: as §1, §2

Chymotrypsin = test: Serine protease specificity, chymotrypsin; format: biochemical; conditions: chymotrypsin (0.4 nM)/S-2586
Description: as §1, §2

[1] = Hydrodynamic diameter by DLS; format: physicochemical; conditions: for hydrodynamic diameter (DLS): 50 mM Tris-HCl buffer (pH 7.4), 25° C.; for hydrodynamic diameter (DLS) in buffers of high ionic strength: 75 mM and 150 mM NaCl
Description: (B) Dynamic Light Scattering (DLS)—Complex formation studies with DLS were carried out at 25° C. using a BI200SM instrument (Brookhaven Instruments Corporation, Holstvile, N.Y., USA). A vertically polarized argon ion laser (514.2 nm, 75 mW; NEC model GLG-3112) was used as the light source. Sample solutions of hemextin A (4 mM), hemextin B (4.1 mM) and hemextin AB complex (2.3 mM) were prepared immediately prior to the experiment. The hydrodynamic diameter for the hemextin AB complex and the individual hemextins were recorded at 25° C. in solutions of different ionic strengths and at different glycerol concentrations. The ionic strengths were varied by the addition of NaCl. From the measured translational diffusion coefficient (DT), the hydrodynamic radius (RH) can be calculated using the Stokes-Einstein relation: […]
where kB is the Boltzmann constant, T is the temperature in Kelvin and η being the viscosity of the solvent. The intensity-intensity time correlation functions were obtained with a BI-9000 digital correlator equipped with the instrument. The particle size and size distribution were obtained by analyzing the field correlation function |g^(1)(τ)| using constrained regularized CONTIN method (73).

Chain of Plasma Kallikrein (P03952 391-638 limits assumed, species assumed): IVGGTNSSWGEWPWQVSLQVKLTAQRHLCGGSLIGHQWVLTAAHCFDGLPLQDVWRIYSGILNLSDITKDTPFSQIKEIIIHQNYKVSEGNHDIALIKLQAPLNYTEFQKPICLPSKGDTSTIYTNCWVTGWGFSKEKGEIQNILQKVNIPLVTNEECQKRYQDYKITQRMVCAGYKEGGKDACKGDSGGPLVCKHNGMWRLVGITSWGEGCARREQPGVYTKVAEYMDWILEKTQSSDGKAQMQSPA
Chain of Plasma Kallikrein (P03952 20-390 limits assumed, species assumed): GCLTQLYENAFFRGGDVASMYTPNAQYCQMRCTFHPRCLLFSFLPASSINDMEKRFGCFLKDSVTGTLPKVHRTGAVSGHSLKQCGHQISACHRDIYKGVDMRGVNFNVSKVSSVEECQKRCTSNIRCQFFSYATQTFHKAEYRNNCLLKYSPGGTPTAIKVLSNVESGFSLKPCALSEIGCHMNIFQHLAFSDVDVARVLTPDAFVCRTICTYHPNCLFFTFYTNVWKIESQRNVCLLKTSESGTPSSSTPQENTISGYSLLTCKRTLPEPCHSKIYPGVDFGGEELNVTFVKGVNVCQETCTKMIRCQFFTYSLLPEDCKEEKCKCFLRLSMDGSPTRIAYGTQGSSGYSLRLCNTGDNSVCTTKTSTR
Chain of APC (P04070 43-197 limits assumed): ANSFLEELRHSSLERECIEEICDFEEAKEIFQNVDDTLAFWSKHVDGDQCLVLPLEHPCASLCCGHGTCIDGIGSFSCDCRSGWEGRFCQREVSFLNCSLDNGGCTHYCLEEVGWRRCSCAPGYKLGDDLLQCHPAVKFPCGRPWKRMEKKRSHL
Chain of APC (P04070 212-461 limits assumed): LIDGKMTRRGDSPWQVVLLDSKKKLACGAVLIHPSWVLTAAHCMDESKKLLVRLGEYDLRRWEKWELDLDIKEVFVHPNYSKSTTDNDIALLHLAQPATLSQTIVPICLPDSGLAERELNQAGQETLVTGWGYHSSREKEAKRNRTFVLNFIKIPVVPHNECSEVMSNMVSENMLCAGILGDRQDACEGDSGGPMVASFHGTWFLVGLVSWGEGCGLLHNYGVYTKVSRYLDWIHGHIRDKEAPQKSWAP

B1: hemextin A (protein)
chain: LKCKNKLVPFLSKTCPEGKNLCYKMTMLKMPKIPIKRGCTDACPKSSLLVKVVCCNKDKCN
In the case of B1, the “anticoagulant activity in buffers of high ionic strength” value (plasma) is reported as “did not affect the anticoagulant activity”, the “anticoagulant activity, prothrombin time” value (plasma) is reported as “mild anticoagulant activity” and the “Observed Effect, Factor IXa amidolytic activity” value (Factor IXa) is reported as “no inhibitory activity”. The “inhibitory potency towards FVIIa versus plasma kallikrein” value (Plasma Kallikrein) was “at least 50 times”, the “Observed Effect, plasma kallikrein amidolytic activity” value (Plasma Kallikrein) was “inhibit plasma kallikrein in a dose-dependant manner; also recorded: inhibit the amidolytic activity of plasma kallikrein” and the “Observed Effect, thrombin amidolytic activity” value (Thrombin) was “no inhibitory activity”. The “Observed Effect, APC amidolytic activity” value (APC) was “no inhibitory activity”, the “Observed Effect, chymotrypsin amidolytic activity” value (Chymotrypsin) was “no inhibitory activity” and the “hydrodynamic diameter (DLS)” value [1] was 10.3 nm and 10.4 nm. For the same molecule, the “hydrodynamic diameter (DLS) in buffers of high ionic strength” value [1] was 11.57 nm.

B2: hemextin AB complex: synergistic 1:1 tetrameric complex of hemextin A and hemextin B, reconstituted from equimolar proteins (protein)
chain 1: B1 chain
chain 2: LKCKNKVVPFLKCKNKVVPFLCYKMTLKKVPKIPIKRGCTDACPKSSLLVNVMCCKTDKCN
For B2, the “anticoagulant activity in buffers of high ionic strength” value (plasma) was “decreased with the increase in ionic strength up to 100 mM NaCl”, the “anticoagulant activity in buffers containing glycerol” value (plasma; 50 mM Tris-HCl (pH 7.4) with glycerol 125 mM to 250 mM) was “decreased with the increase in glycerol concentration” and the “anticoagulant activity at 125 mM glycerol” value (plasma; 125 mM glycerol) was “no decrease in the anticoagulant activity”. The “anticoagulant activity at 250 mM glycerol” value (plasma; 250 mM glycerol) was “higher than that of anticoagulant effect of hemextin A alone”, the “anticoagulant activity, prothrombin time” value (plasma) was “potent anticoagulant activity” and the “anticoagulant activity, prothrombin time” value (plasma; listed as equimolar mixture of hemextin A and B) was “more potent anticoagulant activity”. For the same molecule, the “Observed Effect, Factor IXa amidolytic activity” value (Factor IXa) was “no inhibitory activity”, the “inhibitory potency towards FVIIa versus plasma kallikrein” value (Plasma Kallikrein) was “at least 50 times” and the “Observed Effect, plasma kallikrein amidolytic activity” value (Plasma Kallikrein) was “inhibit plasma kallikrein in a dose-dependant manner; also recorded: inhibit the amidolytic activity of plasma kallikrein”. The “Observed Effect, thrombin amidolytic activity” value (Thrombin) was “no inhibitory activity”, the “Observed Effect, APC amidolytic activity” value (APC) was “no inhibitory activity” and the “Observed Effect, chymotrypsin amidolytic activity” value (Chymotrypsin) was “no inhibitory activity”. For the same molecule, the “hydrodynamic diameter (DLS)” value [1] was 16.8 nm.

B3: hemextin B (protein)
chain: B2 chain 2
With B3 the “anticoagulant activity of hemextin A with increasing hemextin B concentrations” value (plasma; hemextin A constant at 4.4 μM) was “increases with the increasing concentrations of hemextin B until the ratio reaches 1:1”, the “anticoagulant activity, prothrombin time” value (plasma) was “did not show any significant effect on clotting time; also recorded: did not prolong clotting times; also recorded: no anticoagulant activity” and the “Observed Effect, Factor IXa amidolytic activity” value (Factor IXa) was “no inhibitory activity”. The “Observed Effect, plasma kallikrein amidolytic activity” value (Plasma Kallikrein) was “did not inhibit”, the “Observed Effect, thrombin amidolytic activity” value (Thrombin) was “no inhibitory activity” and the “Observed Effect, APC amidolytic activity” value (APC) was “no inhibitory activity”. For the same molecule, the “Observed Effect, chymotrypsin amidolytic activity” value (Chymotrypsin) was “no inhibitory activity”, the “hydrodynamic diameter (DLS)” value [1] was 9.9 nm and the “hydrodynamic diameter (DLS) in buffers of high ionic strength” value [1] was “No change”.

From patent US20090180995A1, “NOVEL ANTICOAGULANT POLYPEPTIDES AND COMPLEX” (National University of Singapore, priority 2005, published 2009)
